Patent US20250027068A1

biological target: pooled human IgG (human); experiment: cell-based or functional assay

Binder | Enzyme Activity Endpoint Assay: Fab′2 | Enzyme Activity Endpoint Assay: Fc | Enzyme Activity Endpoint Assay: IgG | Enzyme Activity Endpoint Assay: scIgG
VRT-18 (Fc fusion) QITSVWTKGVTPLTPEQFRYNNEDVIHAPYLAHQGWYDITKAFDGKDNLLCGAATAGNMLHWWFDQNKTEIEAYLSKHPEKQKIIFNNQELFDLKAAIDTKDSQTNSQLFNYFRDKAFPGLSARQLGVFPDLVLDMFINGYYLNVFKTQSTDVNRPYQDKDKRGGIFDAVFTRGVQTTLLTARHDLKNKGLNDISTIIKQELTEGRALALSHTYANVRISHVINLWGADFNAEGNLEAIYVTDSDANASIGMKKYFVGINAHGHVAISAKKIEGENIGAQVLGLFTLSSGKDIWQKLSDKTHTCPPCPAPEAAGAPSVFLFPPKPKDTLMISRTPEVTCVVVDVSHEDPEVKFNWYVDGVEVHNAKTKPREEQQNSTYRVVSVLTVLHQDWLNGKEYKCKVSNKALKAPIEKTISKAKGQPREPQVYTLPPSRDELTKNQVSLTCLVKGFYPSDIAVEWESNGQPENNYKTTPPVLDSDGSFFLYSKLTVDKSRWQQGNVFSCSVMHEALHNHYTQKSLSLSPG | 0 ng/µL | 4 ng/µL | 995 ng/µL | 9 ng/µL
VRT-13 (Fc fusion) QITSVWTKGVTPPTPEQFRYNNEDVFHAPYTAHQGWYDITKTFDGKDNLLCGAATAGNMLHWWFDQNKTEIEAYLSKHPEKQKIIFNNQELFDLKAAIDTKDSQTNSALFNYFRDKAFPNLSARQLGVMPDLVLDMFINGYYLNVFKTQSTDVNRPYQDKDKRGGIFDAVFTRGDQTTLLTARHDLKNKTLNDISTIIKQELTEGRALALSHTYANVSISHVINLWGADFNAEGNLEAIYVTDSDSNASIGMKKYFVGVNASGKVAISAKKIEGENIGAQVLGLFTLSSGKDIWQKLSDKTHTCPPCPAPEAAGAPSVFLFPPKPKDTLMISRTPEVTCVVVDVSHEDPEVKFNWYVDGVEVHNAKTKPREEQQNSTYRVVSVLTVLHQDWLNGKEYKCKVSNKALKAPIEKTISKAKGQPREPQVYTLPPSRDELTKNQVSLTCLVKGFYPSDIAVEWESNGQPENNYKTTPPVLDSDGSFFLYSKLTVDKSRWQQGNVFSCSVMHEALHNHYTQKSLSLSPG | 0 ng/µL | 97 ng/µL | 814 ng/µL | 42 ng/µL
VRT-14 (Fc fusion) SQTEDSESLQRLRDIEDFQAEKKKQNVVYTKWLDGVDVKDHDFRKIVDGNIAYYATPLLNGRGFYDINKDFNRDSDKCAAAVAANMFHYWLDRNRDNVDRFLRQNPEKHGIIELPDGQLKLSDFLNTYESDDGYRDKSKLFDFISNNFNGPVWTDKLLDNYINGYAYNYKYGRTIEDPTKNTSKINFFKEVFNEKILTNNHSIRNQNEFSVLLSEALYTGKAIGLSYGPAGLRHSLGHIISVWGADLDADGNVVAIYVTDSDDKKLTIGDERVGLKRYKISTDDEGRLRLTAYEETHNTGGQIRGLWTLDTGKQAWADYFDKTEQTGTDQAEQDKTHTCPPCPAPEAAGAPSVFLFPPKPKDTLMISRTPEVTCVVVDVSHEDPEVKFNWYVDGVEVHNAKTKPREEQQNSTYRVVSVLTVLHQDWLNGKEYKCKVSNKALKAPIEKTISKAKGQPREPQVYTLPPSRDELTKNQVSLTCLVKGFYPSDIAVEWESNGQPENNYKTTPPVLDSDGSFFLYSKLTVDKSRWQQGNVFSCSVMHEALHNHYTQKSLSLSPG | 0 ng/µL | 4 ng/µL | 1020 ng/µL | 22 ng/µL
VRT-19 (Fc fusion) SQTEDSESLQRLRDIEDFQAEKKMQNVVYTKWLDGVDVKDHDFRKIVDGNIAYYATPLLNGRGFYDINKDFNRDNDKCAAAVAANMFHYWLDINRDNVDRFLRQNPEKHGIIELPDGQLKLSDFLNTYESDHGYRDKSKLFDFISNNFNGPVWTDKLLDNYINGYAYNYKYGRTIEDSTKNTSKINFFKEVFNEKILTNNHSIRNQNEFSVLLSEALYTGKAIGLSYGPAGLRHSLGHIISVWGADLDADGNVVAIYVTDSDDKKLTIGDERVGLKRYKISTDDENRLRLTAYEETHNTGGQIRGLWTLDTGKYAWADYFDKTEQTGTDQAEQDKTHTCPPCPAPEAAGAPSVFLFPPKPKDTLMISRTPEVTCVVVDVSHEDPEVKFNWYVDGVEVHNAKTKPREEQQNSTYRVVSVLTVLHQDWLNGKEYKCKVSNKALKAPIEKTISKAKGQPREPQVYTLPPSRDELTKNQVSLTCLVKGFYPSDIAVEWESNGQPENNYKTTPPVLDSDGSFFLYSKLTVDKSRWQQGNVFSCSVMHEALHNHYTQKSLSLSPG | 0 ng/µL | 54 ng/µL | 1250 ng/µL | 33 ng/µL
VRT-17 (Fc fusion) VTSVWTKGVTPPAKFTQGEDVFHAPYVANQGWYDITKTFNGKDNLLCGAATAGNMLHWWFDQNKEKIEAYLKKHPDKQKIIFGDQELLDVRKVINTKGDQTNSELFNYFRDKAFPGLSARRIGVFPDLVLDMFINGYYLNVYKTQTTDVNRTYQEKDRRGGIFDAVFTRGVQSKLLTSRHDFKEKNLKEISDLIKKELTEGKALGLSHTYANVRINHVINLWGADFDSNGNLKAIYVTDSDTNASIGMKKYFVGVNSAGKVAISAKEIKEDNIGAQVLGLFTLSTGQDSWNQTNDKTHTCPPCPAPEAAGAPSVFLFPPKPKDTLMISRTPEVTCVVVDVSHEDPEVKFNWYVDGVEVHNAKTKPREEQQNSTYRVVSVLTVLHQDWLNGKEYKCKVSNKALKAPIEKTISKAKGQPREPQVYTLPPSRDELTKNQVSLTCLVKGFYPSDIAVEWESNGQPENNYKTTPPVLDSDGSFFLYSKLTVDKSRWQQGNVFSCSVMHEALHNHYTQKSLSLSPG | 0 ng/µL | 5 ng/µL | 1030 ng/µL | 20 ng/µL
VRT-16 (Fc fusion) VTSVWTKGVTPPANFTQGEDVFHAPYVANQGWYDITKTFNGKDNLLCGAATAGNMLHWWFDQNKDQIKRYLEEHPEKQKINFNGEQLFDVKEAIDTKNHQLDSKLFEYFKEKAFPYLSTKHLGVFPDHVIDMFINGYRLSLTNHGPTPVKEGSKDKRGGIFDAVFTRGVQSKLLTSRHDFKEKNLKEISDLIKKELTEGKALGLSHTYANVRINHVINLWGADFDSNGNLKAIYVTDSDTNASIGMKKYFVGVNSAGKVAISAKEIKEDNIGAQVLGLFTLSTGQDSWNQTNDKTHTCPPCPAPEAAGAPSVFLFPPKPKDTLMISRTPEVTCVVVDVSHEDPEVKFNWYVDGVEVHNAKTKPREEQQNSTYRVVSVLTVLHQDWLNGKEYKCKVSNKALKAPIEKTISKAKGQPREPQVYTLPPSRDELTKNQVSLTCLVKGFYPSDIAVEWESNGQPENNYKTTPPVLDSDGSFFLYSKLTVDKSRWQQGNVFSCSVMHEALHNHYTQKSLSLSPG | 0 ng/µL | 130 ng/µL | 682 ng/µL | 91 ng/µL
VRT-20 (Fc fusion) VTSVWTKGVTPPANFTQGEDVFHAPYVANQGWYDITKTFNRKDNLLCGAATAGNMLHWWFDQNKDQIKRYLEEHPEKQKINFKGEQLFDVKEAIDTKNHQLDSKLFEYFKEKAFPYLSTKHLGVFPDHVIDMFINGYRLSLTNHGPTPVKEGSKDKRGGIFDAVFTRGVQSKLLTSRHDFKEKNLKEISDLIKKELTEGKALGLSHTYANVRINHVINLWGADFDSNGNLKAIYVTDSDTEASIGMKKYFVGVNKAGKVAISAKEIKEDNIGAQVLGLFTLSTGQDSWNQTNDKTHTCPPCPAPEAAGAPSVFLFPPKPKDTLMISRTPEVTCVVVDVSHEDPEVKFNWYVDGVEVHNAKTKPREEQQNSTYRVVSVLTVLHQDWLNGKEYKCKVSNKALKAPIEKTISKAKGQPREPQVYTLPPSRDELTKNQVSLTCLVKGFYPSDIAVEWESNGQPENNYKTTPPVLDSDGSFFLYSKLTVDKSRWQQGNVFSCSVMHEALHNHYTQKSLSLSPG | 0 ng/µL | 5 ng/µL | 981 ng/µL | 12 ng/µL
